Experimental data published in PMC314469, “Protein Interaction Networks by Proteome Peptide Scanning” (PLoS Biology, 2004).

T1: Rvs167 SH3 (RV167_YEAST), P39743
T1 chain: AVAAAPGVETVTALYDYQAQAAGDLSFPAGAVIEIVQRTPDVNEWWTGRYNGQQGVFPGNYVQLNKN

T2: Yhr016c SH3 (YSC84_YEAST), P32793
T2 chain: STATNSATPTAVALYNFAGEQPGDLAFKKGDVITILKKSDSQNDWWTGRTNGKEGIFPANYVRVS

T3: Myo5 SH3 (MYO5_YEAST), Q04439
T3 chain: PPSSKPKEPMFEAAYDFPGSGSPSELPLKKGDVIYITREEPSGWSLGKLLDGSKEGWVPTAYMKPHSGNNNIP

T4: Yfr024 SH3 (LSB3_YEAST), P43603
T4 chain: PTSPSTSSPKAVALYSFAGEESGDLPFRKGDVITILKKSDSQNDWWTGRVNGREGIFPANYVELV

T5: Boi1 SH3 (BOI1_YEAST), P38041
T5 chain: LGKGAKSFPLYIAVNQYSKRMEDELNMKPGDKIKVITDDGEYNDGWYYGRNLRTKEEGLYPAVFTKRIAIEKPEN

T6: Boi2 SH3 (BOI2_YEAST), P39969
T6 chain: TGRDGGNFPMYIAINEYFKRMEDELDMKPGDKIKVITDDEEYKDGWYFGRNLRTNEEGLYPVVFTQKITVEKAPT


Target: T1, Rvs167 SH3 (RV167_YEAST), P39743
Test: SPOT array

| Binder | normalised SPOT signal, Boehringer light units (BLU); mean over the file's lines of this peptide |
| --- | --- |
| NAPERAVPILPPRN [YBR108W 539-552] | 16500 |
| MSWSKERPESPLSR [YDR265W 311-324] | 243 |
| NAQLRKTPLEPGLE [YDL126C 668-681] | 116 |
| MLFMKGSPSEPKSG [YDR098C 199-212] | 377 |
| MTQPKKNPMEPKTD [YDL148C 252-265] | 181 |
| MPNLKRLPIPPLQD [YAR035W 1-14] | 65.7 |
| MKPQKIAPKFPGTV [YDR091C 417-430] | 137 |
| MLNSKHYPYIPVAN [YBR096W 107-120] | 368 |
| MKAYRANPPLPIDS [YDR104C 798-811] | 145 |

Now from value to binder:

| normalised SPOT signal, Boehringer light units (BLU); mean over the file's lines of this peptide | Binder |
| --- | --- |
| 47.9 | NDDKKTEPDKPAFS [YJL041W 186-199] |
| 187 | MTVPRNRPMAPFGT [YLR064W 1-14] |
| 156 | NAPPRIFPKAPIYG [YDR283C 1060-1073] |
| 375 | MYGSKFIPFGPKSQ [YER038C 415-428] |
| 1200 | MRRSKDAPIEPPKY [YOR346W 669-682] |
| 1490 | MYDRKVIPRMPWHD [YKR031C 861-874] |
| 153 | MQSKKEDPNRPKNL [YMR241W 242-255] |

Target: T2, Yhr016c SH3 (YSC84_YEAST), P32793
Test: SPOT array

| Binder | normalised SPOT signal, Boehringer light units (BLU); mean over the file's lines of this peptide |
| --- | --- |
| NAPERAVPILPPRN [YBR108W 539-552] | 36600 |
| MSWSKERPESPLSR [YDR265W 311-324] | 168 |
| NAQLRKTPLEPGLE [YDL126C 668-681] | 79.9 |
| MLFMKGSPSEPKSG [YDR098C 199-212] | 262 |
| MTQPKKNPMEPKTD [YDL148C 252-265] | 60.7 |
| MPNLKRLPIPPLQD [YAR035W 1-14] | 83.4 |
| MKPQKIAPKFPGTV [YDR091C 417-430] | 40.5 |
| MLNSKHYPYIPVAN [YBR096W 107-120] | 128 |
| MKAYRANPPLPIDS [YDR104C 798-811] | 615 |

More lines, now with the values ahead:

| normalised SPOT signal, Boehringer light units (BLU); mean over the file's lines of this peptide | Binder |
| --- | --- |
| 37.1 | NDDKKTEPDKPAFS [YJL041W 186-199] |
| 213 | MTVPRNRPMAPFGT [YLR064W 1-14] |
| 186 | NAPPRIFPKAPIYG [YDR283C 1060-1073] |
| 118 | MYGSKFIPFGPKSQ [YER038C 415-428] |
| 1050 | MRRSKDAPIEPPKY [YOR346W 669-682] |
| 742 | MYDRKVIPRMPWHD [YKR031C 861-874] |
| 126 | MQSKKEDPNRPKNL [YMR241W 242-255] |

Target: T3, Myo5 SH3 (MYO5_YEAST), Q04439
Test: SPOT array

| Binder | normalised SPOT signal, Boehringer light units (BLU); mean over the file's lines of this peptide |
| --- | --- |
| NAPERAVPILPPRN [YBR108W 539-552] | 741 |
| MSWSKERPESPLSR [YDR265W 311-324] | 268 |
| NAQLRKTPLEPGLE [YDL126C 668-681] | 176 |
| MLFMKGSPSEPKSG [YDR098C 199-212] | 251 |
| MTQPKKNPMEPKTD [YDL148C 252-265] | 147 |
| MPNLKRLPIPPLQD [YAR035W 1-14] | 307 |
| MKPQKIAPKFPGTV [YDR091C 417-430] | 416 |
| MLNSKHYPYIPVAN [YBR096W 107-120] | 171 |
| MKAYRANPPLPIDS [YDR104C 798-811] | 123 |

The next lines start with the values.

| normalised SPOT signal, Boehringer light units (BLU); mean over the file's lines of this peptide | Binder |
| --- | --- |
| 140 | NDDKKTEPDKPAFS [YJL041W 186-199] |
| 596 | MTVPRNRPMAPFGT [YLR064W 1-14] |
| 168 | NAPPRIFPKAPIYG [YDR283C 1060-1073] |
| 290 | MYGSKFIPFGPKSQ [YER038C 415-428] |
| 155 | MRRSKDAPIEPPKY [YOR346W 669-682] |
| 357 | MYDRKVIPRMPWHD [YKR031C 861-874] |
| 154 | MQSKKEDPNRPKNL [YMR241W 242-255] |

Target: Sho1 SH3 (SHO1_YEAST), P40073
Sequence (P40073 295-366): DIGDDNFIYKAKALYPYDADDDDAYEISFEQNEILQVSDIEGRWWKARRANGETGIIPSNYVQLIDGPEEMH
Test: SPOT array

| Binder | normalised SPOT signal, Boehringer light units (BLU); mean over the file's lines of this peptide |
| --- | --- |
| NAPERAVPILPPRN [YBR108W 539-552] | 52.7 |
| MSWSKERPESPLSR [YDR265W 311-324] | 155 |
| NAQLRKTPLEPGLE [YDL126C 668-681] | 48.6 |
| MLFMKGSPSEPKSG [YDR098C 199-212] | 59.6 |
| MTQPKKNPMEPKTD [YDL148C 252-265] | 15.9 |
| MPNLKRLPIPPLQD [YAR035W 1-14] | 24500 |
| MKPQKIAPKFPGTV [YDR091C 417-430] | 142 |
| MLNSKHYPYIPVAN [YBR096W 107-120] | 35 |
| MKAYRANPPLPIDS [YDR104C 798-811] | 231 |

More lines, now with the values ahead:

| normalised SPOT signal, Boehringer light units (BLU); mean over the file's lines of this peptide | Binder |
| --- | --- |
| 26 | NDDKKTEPDKPAFS [YJL041W 186-199] |
| 186 | MTVPRNRPMAPFGT [YLR064W 1-14] |
| 140 | NAPPRIFPKAPIYG [YDR283C 1060-1073] |
| 145 | MYGSKFIPFGPKSQ [YER038C 415-428] |
| 149 | MRRSKDAPIEPPKY [YOR346W 669-682] |
| 569 | MYDRKVIPRMPWHD [YKR031C 861-874] |
| 44.8 | MQSKKEDPNRPKNL [YMR241W 242-255] |

Target: T4, Yfr024 SH3 (LSB3_YEAST), P43603
Test: SPOT array

| Binder | normalised SPOT signal, Boehringer light units (BLU); mean over the file's lines of this peptide |
| --- | --- |
| NAPERAVPILPPRN [YBR108W 539-552] | 24400 |
| MSWSKERPESPLSR [YDR265W 311-324] | 1750 |
| NAQLRKTPLEPGLE [YDL126C 668-681] | 371 |
| MLFMKGSPSEPKSG [YDR098C 199-212] | 1090 |
| MTQPKKNPMEPKTD [YDL148C 252-265] | 404 |
| MPNLKRLPIPPLQD [YAR035W 1-14] | 489 |
| MKPQKIAPKFPGTV [YDR091C 417-430] | 394 |
| MLNSKHYPYIPVAN [YBR096W 107-120] | 595 |
| MKAYRANPPLPIDS [YDR104C 798-811] | 938 |

The remaining lines, values ahead:

| normalised SPOT signal, Boehringer light units (BLU); mean over the file's lines of this peptide | Binder |
| --- | --- |
| 63.4 | NDDKKTEPDKPAFS [YJL041W 186-199] |
| 466 | MTVPRNRPMAPFGT [YLR064W 1-14] |
| 2080 | NAPPRIFPKAPIYG [YDR283C 1060-1073] |
| 898 | MYGSKFIPFGPKSQ [YER038C 415-428] |
| 2300 | MRRSKDAPIEPPKY [YOR346W 669-682] |
| 1600 | MYDRKVIPRMPWHD [YKR031C 861-874] |
| 716 | MQSKKEDPNRPKNL [YMR241W 242-255] |

Target: T5, Boi1 SH3 (BOI1_YEAST), P38041
Test: SPOT array

| Binder | normalised SPOT signal, Boehringer light units (BLU); mean over the file's lines of this peptide |
| --- | --- |
| NAPERAVPILPPRN [YBR108W 539-552] | 3280 |
| MSWSKERPESPLSR [YDR265W 311-324] | 1020 |
| NAQLRKTPLEPGLE [YDL126C 668-681] | 156 |
| MLFMKGSPSEPKSG [YDR098C 199-212] | 30.9 |
| MTQPKKNPMEPKTD [YDL148C 252-265] | 37.8 |
| MPNLKRLPIPPLQD [YAR035W 1-14] | 80.9 |
| MKPQKIAPKFPGTV [YDR091C 417-430] | 1110 |
| MLNSKHYPYIPVAN [YBR096W 107-120] | 57.3 |
| MKAYRANPPLPIDS [YDR104C 798-811] | 132 |

Results, then the binder that gave them:

| normalised SPOT signal, Boehringer light units (BLU); mean over the file's lines of this peptide | Binder |
| --- | --- |
| 52.4 | NDDKKTEPDKPAFS [YJL041W 186-199] |
| 1210 | MTVPRNRPMAPFGT [YLR064W 1-14] |
| 8550 | NAPPRIFPKAPIYG [YDR283C 1060-1073] |
| 131 | MYGSKFIPFGPKSQ [YER038C 415-428] |
| 555 | MRRSKDAPIEPPKY [YOR346W 669-682] |
| 7810 | MYDRKVIPRMPWHD [YKR031C 861-874] |
| 898 | MQSKKEDPNRPKNL [YMR241W 242-255] |

Target: T6, Boi2 SH3 (BOI2_YEAST), P39969
Test: SPOT array

| Binder | normalised SPOT signal, Boehringer light units (BLU); mean over the file's lines of this peptide |
| --- | --- |
| NAPERAVPILPPRN [YBR108W 539-552] | 83 |
| MSWSKERPESPLSR [YDR265W 311-324] | 104 |
| NAQLRKTPLEPGLE [YDL126C 668-681] | 88.8 |
| MLFMKGSPSEPKSG [YDR098C 199-212] | 128 |
| MTQPKKNPMEPKTD [YDL148C 252-265] | 76.8 |
| MPNLKRLPIPPLQD [YAR035W 1-14] | 23 |
| MKPQKIAPKFPGTV [YDR091C 417-430] | 31.6 |
| MLNSKHYPYIPVAN [YBR096W 107-120] | 50 |
| MKAYRANPPLPIDS [YDR104C 798-811] | 133 |

Second part, the binder after the results:

| normalised SPOT signal, Boehringer light units (BLU); mean over the file's lines of this peptide | Binder |
| --- | --- |
| 17.3 | NDDKKTEPDKPAFS [YJL041W 186-199] |
| 55.2 | MTVPRNRPMAPFGT [YLR064W 1-14] |
| 40.1 | NAPPRIFPKAPIYG [YDR283C 1060-1073] |
| 326 | MYGSKFIPFGPKSQ [YER038C 415-428] |
| 688 | MRRSKDAPIEPPKY [YOR346W 669-682] |
| 395 | MYDRKVIPRMPWHD [YKR031C 861-874] |
| 50.2 | MQSKKEDPNRPKNL [YMR241W 242-255] |
